Biological target: Full-length human Nf1-23a (neurofibromin isoform 2) (human) (UniProt P21359)
Assay: cryo-EM structure; single-particle cryo-EM of purified Nf1-23a at ~0.5 mg/ml in 20 mM Tris pH 8.0, 300 mM NaCl, 2 mM DTT, grids frozen at 4 °C; native sample and sample incubated 90 min with 50 µM ZnCl2; homodimer, no symmetry imposed (C1)
Details: remark: other sources report otherwise

- stoichiometry N: 2
Substance: Full-length human Nf1-23a (neurofibromin isoform 2), P21359 1-2839

Reference: publication PMC8580823
